Source: US20200247897A1, “THERAPEUTIC ANTIBODIES BASED ON MUTATED IGG HEXAMERS” (GENMAB B.V., priority 2017, published 2020)

Tests used:
HCT 116 = test: Drug combination screen (ATPlite, Synergy Score), HCT 116; settings: compound in combination with IgG1-hDR5-01-G56T-E430G + IgG1-hDR5-05-E430G; HCT 116; 120 hour ATPlite, 6x6 matrix
DLD-1 = test: Drug combination screen (ATPlite, Synergy Score), DLD-1; settings: compound in combination with IgG1-hDR5-01-G56T-E430G + IgG1-hDR5-05-E430G; DLD-1; 120 hour ATPlite, 6x6 matrix
SNU-C2B = test: Drug combination screen (ATPlite, Synergy Score), SNU-C2B; settings: compound in combination with IgG1-hDR5-01-G56T-E430G + IgG1-hDR5-05-E430G; SNU-C2B; 72 hour ATPlite, 6x6 matrix
SW480 = test: Drug combination screen (ATPlite, Synergy Score), SW480; type: cell-based, human; settings: compound in combination with IgG1-hDR5-01-G56T-E430G + IgG1-hDR5-05-E430G; SW480; 72 hour ATPlite, 6x6 matrix
LS-411N = test: Drug combination screen (ATPlite, Synergy Score), LS-411N; type: cell-based, human; settings: compound in combination with IgG1-hDR5-01-G56T-E430G + IgG1-hDR5-05-E430G; LS-411N; 72 hour ATPlite, 6x6 matrix

B1: TNF-related apoptosis-inducing ligand (protein, UniProt P50591 1-281, looked up)
Tumor necrosis factor ligand …: MAMMEVQGGPSLGQTCVLIVIFTVLLQSLCVAVTYVYFTNELKQMQDKYSKSGIACFLKEDDSYWDPNDEESMNSPCWQVKWQLRQLVRKMILRTSEETISTVQEKQQNISPLVRERGPQRVAAHITGTRGRSNTLSSPNSKNEKALGRKINSWESSRSGHSFLSNLHLRNGELVIHEKGFYYIYSQTYFRFQEEIKENTKNDKQMVQYIYKYTSYPDPILLMKSARNSCWSKDAEYGLYSIYQGGIFELKENDRIFVSVTNEHLIDMDHEASFFGAFLVG
Synergy Score HCT-116 (HCT 116): 0
Synergy Score DLD-1 (DLD-1): 0
Synergy Score SNU-C2B (SNU-C2B): 0.2
Synergy Score SW480 (SW480): 0.9
Synergy Score LS-411N (LS-411N): 0.1
